Experimental data: the supplement of paper PMC11246515
± gives the standard deviation of the averaged measurements.

Experiment: total protein half-life in vivo (active degradation + dilution); higher = more stable protein
[1] = E. coli NCM3722 delta-clpP delta-lon delta-hslV, growth: N-lim chemostat, doubling time 6 h
[2] = E. coli NCM3722 delta-clpP, growth: N-lim chemostat, doubling time 6 h
[3] = E. coli NCM3722 delta-hslV, growth: N-lim chemostat, doubling time 6 h
[4] = E. coli NCM3722 delta-lon, growth: N-lim chemostat, doubling time 6 h
[5] = E. coli NCM3722 delta-smpB, growth: N-lim chemostat, doubling time 6 h
[6] = wild type E. coli NCM3722, growth: C-lim chemostat, doubling time 3 h
[7] = wild type E. coli NCM3722, growth: C-lim chemostat, doubling time 6 h
[8] = wild type E. coli NCM3722, growth: C-lim chemostat, doubling time 12 h
[9] = wild type E. coli NCM3722, growth: N-lim chemostat, doubling time 6 h
[10] = wild type E. coli NCM3722, growth: N-lim chemostat, doubling time 12 h
[11] = wild type E. coli NCM3722, growth: P-lim chemostat, doubling time 6 h
[12] = wild type E. coli NCM3722, growth: P-lim chemostat, doubling time 12 h

Sequence	total protein half-life in vivo [1] [h]	total protein half-life in vivo [2] [h]	total protein half-life in vivo [3] [h]	total protein half-life in vivo [4] [h]	total protein half-life in vivo [5] [h]	total protein half-life in vivo [6] [h]	total protein half-life in vivo [7] [h]	total protein half-life in vivo [8] [h]	total protein half-life in vivo [9] [h]	total protein half-life in vivo [10] [h]	total protein half-life in vivo [11] [h]	total protein half-life in vivo [12] [h]
MIDKSAFVHPTAIVEEGASIGANAHIGPFCIVGPHVEIGEGTVLKSHVVVNGHTKIGRDNEIYQFASIGEVNQDLKYAGEPTRVEIGDRNRIRESVTIHRGTVQGGGLTKVGSDNLLMINAHIAHDCTVGNRCILANNATLAGHVSVDDFAIIGGMTAVHQFCIIGAHVMVGGCSGVAQDVPPYVIAQGNHATPFGVNIEGLKRRGFSREAITAIRNAYKLIYRSGKTLDEVKPEIAELAETYPEVKAFTDFFARSTRGLIR [P0A722]	5.73 ± 0.15	5.26 ± 0.2	5.49 ± 0.17	5.48 ± 0.32	5.59 ± 0.7	3.06 ± 0.068	5.79 ± 0.17	10.9 ± 0.052	5.52 ± 0.27	10.4 ± 0.94	5.95 ± 0.41	12.5 ± 0.48
MALTTISPHDAQELIARGAKLIDIRDADEYLREHIPEADLAPLSVLEQSGLPAKLRHEQIIFHCQAGKRTSNNADKLAAIAAPAEIFLLEDGIDGWKKAGLPVAVNKSQPLPLMRQVQIAAGGLILIGVVLGYTVNSGFFLLSGFVGAGLLFAGISGFCGMARLLDKMPWNQRA	4.3 ± 0.19	4.2 ± 0.14	4.71 ± 0.24	4.74 ± 0.82	5.91 ± 1.4	2.61 ± 0.23	6.01 ± 1.2	8.96 ± 2.1	4.58 ± 0.2	8.75 ± 0.24	5.266 ± 0.016	10.3 ± 0.39
MSYLNLRLYQRNTQCLHIRKHRLAGFFVRLVVACAFAAQAPLSSADLYFNPRFLADDPQAVADLSRFENGQELPPGTYRVDIYLNNGYMATRDVTFNTGDSEQGIVPCLTRAQLASMGLNTASVAGMNLLADDACVPLTTMVQDATAHLDVGQQRLNLTIPQAFMSNRARGYIPPELWDPGINAGLLNYNFSGNSVQNRIGGNSHYAYLNLQSGLNIGAWRLRDNTTWSYNSSDRSSGSKNKWQHINTWLERDIIPLRSRLTLGDGYTQGDIFDGINFRGAQLASDDNMLPDSQRGFAPVIHGIARGTAQVTIKQNGYDIYNSTVPPGPFTINDIYAAGNSGDLQVTIKEADGSTQIFTVPYSSVPLLQREGHTRYSITAGEYRSGNAQQEKTRFFQSTLLHGLPAGWTIYGGTQLADRYRAFNFGIGKNMGALGALSVDMTQANSTLPDDSQHDGQSVRFLYNKSLNESGTNIQLVGYRYSTSGYFNFADTTYSRMNGYNIETQDGVIQVKPKFTDYYNLAYNKRGKLQLTVTQQLGRTSTLYLSGSHQTYWGTSNVDEQFQAGLNTAFEDINWTLSYSLTKNAWQKGRDQMLALNVNIPFSHWLRSDSKSQWRHASASYSMSHDLNGRMTNLAGVYGTLLEDNNLSYSVQTGYAGGGDGNSGSTGYATLNYRGGYGNANIGYSHSDDIKQLYYGVSGGVLAHANGVTLGQPLNDTVVLVKAPGAKDAKVENQTGVRTDWRGYAVLPYATEYRENRVALDTNTLADNVDLDNAVANVVPTRGAIVRAEFKARVGIKLLMTLTHNNKPLPFGAMVTSESSQSSGIVADNGQVYLSGMPLAGKVQVKWGEEENAHCVANYQLPPESQQQLLTQLSAECR					5.97 ± 0.21	3.14	6.02	> 16	> 8	> 16	6.2	> 16
MASTFTSDTLPADHKAAIRQMKHALRAQLGDVQQIFNQLSDDIATRVAEINALKAQGDAVWPVLSYADIKAGHVTAEQREQIKRRGCAVIKGHFPREQALGWDQSMLDYLDRNRFDEVYKGPGDNFFGTLSASRPEIYPIYWSQAQMQARQSEEMANAQSFLNRLWTFESDGKQWFNPDVSVIYPDRIRRRPPGTTSKGLGAHTDSGALERWLLPAYQRVFANVFNGNLAQYDPWHAAHRTEVEEYTVDNTTKCSVFRTFQGWTALSDMLPGQGLLHVVPIPEAMAYVLLRPLLDDVPEDELCGVAPGRVLPVSEQWHPLLIEALTSIPKLEAGDSVWWHCDVIHSVAPVENQQGWGNVMYIPAAPMCEKNLAYAHKVKAALEKGASPGDFPREDYETNWEGRFTLADLNIHGKRALGMDV	3.33 ± 0.48	2.54 ± 0.23	2.4687 ± 0.002	2.95 ± 0.21	2.62 ± 0.082	2.7 ± 0.11	4.34 ± 1	3.99 ± 0.74	2.526 ± 0.014	3.68 ± 0.21	4.563 ± 0.02	7.6 ± 0.48
MSFDIAKYPTLALVDSTQELRLLPKESLPKLCDELRRYLLDSVSRSSGHFASGLGTVELTVALHYVYNTPFDQLIWDVGHQAYPHKILTGRRDKIGTIRQKGGLHPFPWRGESEYDVLSVGHSSTSISAGIGIAVAAEKEGKNRRTVCVIGDGAITAGMAFEAMNHAGDIRPDMLVILNDNEMSISENVGALNNHLAQLLSGKLYSSLREGGKKVFSGVPPIKELLKRTEEHIKGMVVPGTLFEELGFNYIGPVDGHDVLGLITTLKNMRDLKGPQFLHIMTKKGRGYEPAEKDPITFHAVPKFDPSSGCLPKSSGGLPSYSKIFGDWLCETAAKDNKLMAITPAMREGSGMVEFSRKFPDRYFDVAIAEQHAVTFAAGLAIGGYKPIVAIYSTFLQRAYDQVLHDVAIQKLPVLFAIDRAGIVGADGQTHQGAFDLSYLRCIPEMVIMTPSDENECRQMLYTGYHYNDGPSAVRYPRGNAVGVELTPLEKLPIGKGIVKRRGEKLAILNFGTLMPEAAKVAESLNATLVDMRFVKPLDEALILEMAASHEALVTVEENAIMGGAGSGVNEVLMAHRKPVPVLNIGLPDFFIPQGTQEEMRAELGLDAAGMEAKIKAWLA	5.82 ± 0.5	6.08 ± 0.29	5.79 ± 0.18	5.92 ± 0.57	5.36 ± 0.085	3.01 ± 0.11	6.16 ± 0.82	10.7 ± 1.4	5.82 ± 0.11	13.6 ± 0.63	6.55 ± 0.58	12.6 ± 0.56
MKIITCFKLVPEEQDIVVTPEYTLNFDNADAKISQFDLNAIEAASQLATDDDEIAALTVGGSLLQNSKVRKDVLSRGPHSLYLVQDAQLEHALPLDTAKALAAAIEKIGFDLLIFGEGSGDLYAQQVGLLVGEILQLPVINAVSAIQRQGNTLVIERTLEDDVEVIELSVPAVLCVTSDINVPRIPSMKAILGAGKKPVNQWQASDIDWSQSAPLAELVGIRVPPQTERKHIIIDNDSPEAIAELAEHLKKALN				4.32		0.95						
